# Results: IntAct's records for PubMed 10433268
# B1: Disks large-associated protein 1 (Rattus norvegicus (Rat)), P97836-5 (parent)
# chain: MIDLFKAEWVSSVCVQVSRNGRTDQVWVPQDEWTGYTPRGKDDEIPCRRMRSGSYIKAMGDEDSGDSDTSPKPSPKVAARRESYLKATQPSLTELTTLKISNEHSPKLQIRSHSYLRAVSEVSINRSLDSLDPAGLLTSPKFRSRNESYMRAMSTISQVSEMEVNGQFESVCESVFSELESQAVEALDLPMPGCFRMRSHSYVRAIEKGCSQDDECVSLRSSSPPRTTTTVRTIQSSTGVIKLSSAVEAQSSTESAQDAYMDGQGQRGDMISQSGLSNSTESLDSMKALTAAIEAANAQIHGPASQHMGSNAAAVTTTTTIATVTTEDRKKDFKKNRCLSIGIQVDDAEESEKMAESKTSSKFQSVGVQVEEEKCFRRFTRSNSVTTAVQADLDFHDNLENSLESIEDNSCPGPMARQFSRDASTSTVSIQGSGNHYHACAADDDFDTDFDPSILPPPDPWIDSITEDPLEAVQRSVCHRDGHWFLKLLQAERDRMEGWCKQMEREERENNLPEDILGKIRTAVGSAQLLMAQKFYQFRELCEENLNPNAHPRPTSQDLAGFWDMLQLSIENISMKFDELHQLKANNWKQMDPLDKKERRAPPPVPKKPAKGPAPLIRERSLESSQRQEARKRLMAAKRAASVRQNSATESAESIEIYIPEAQTRL
# Variants of: B1
# Details: with Shank1, Q9WV48-4
# Shank1, Q9WV48-4, sequence (Q9WV48 other isoform, or with tags, fused parts or gaps): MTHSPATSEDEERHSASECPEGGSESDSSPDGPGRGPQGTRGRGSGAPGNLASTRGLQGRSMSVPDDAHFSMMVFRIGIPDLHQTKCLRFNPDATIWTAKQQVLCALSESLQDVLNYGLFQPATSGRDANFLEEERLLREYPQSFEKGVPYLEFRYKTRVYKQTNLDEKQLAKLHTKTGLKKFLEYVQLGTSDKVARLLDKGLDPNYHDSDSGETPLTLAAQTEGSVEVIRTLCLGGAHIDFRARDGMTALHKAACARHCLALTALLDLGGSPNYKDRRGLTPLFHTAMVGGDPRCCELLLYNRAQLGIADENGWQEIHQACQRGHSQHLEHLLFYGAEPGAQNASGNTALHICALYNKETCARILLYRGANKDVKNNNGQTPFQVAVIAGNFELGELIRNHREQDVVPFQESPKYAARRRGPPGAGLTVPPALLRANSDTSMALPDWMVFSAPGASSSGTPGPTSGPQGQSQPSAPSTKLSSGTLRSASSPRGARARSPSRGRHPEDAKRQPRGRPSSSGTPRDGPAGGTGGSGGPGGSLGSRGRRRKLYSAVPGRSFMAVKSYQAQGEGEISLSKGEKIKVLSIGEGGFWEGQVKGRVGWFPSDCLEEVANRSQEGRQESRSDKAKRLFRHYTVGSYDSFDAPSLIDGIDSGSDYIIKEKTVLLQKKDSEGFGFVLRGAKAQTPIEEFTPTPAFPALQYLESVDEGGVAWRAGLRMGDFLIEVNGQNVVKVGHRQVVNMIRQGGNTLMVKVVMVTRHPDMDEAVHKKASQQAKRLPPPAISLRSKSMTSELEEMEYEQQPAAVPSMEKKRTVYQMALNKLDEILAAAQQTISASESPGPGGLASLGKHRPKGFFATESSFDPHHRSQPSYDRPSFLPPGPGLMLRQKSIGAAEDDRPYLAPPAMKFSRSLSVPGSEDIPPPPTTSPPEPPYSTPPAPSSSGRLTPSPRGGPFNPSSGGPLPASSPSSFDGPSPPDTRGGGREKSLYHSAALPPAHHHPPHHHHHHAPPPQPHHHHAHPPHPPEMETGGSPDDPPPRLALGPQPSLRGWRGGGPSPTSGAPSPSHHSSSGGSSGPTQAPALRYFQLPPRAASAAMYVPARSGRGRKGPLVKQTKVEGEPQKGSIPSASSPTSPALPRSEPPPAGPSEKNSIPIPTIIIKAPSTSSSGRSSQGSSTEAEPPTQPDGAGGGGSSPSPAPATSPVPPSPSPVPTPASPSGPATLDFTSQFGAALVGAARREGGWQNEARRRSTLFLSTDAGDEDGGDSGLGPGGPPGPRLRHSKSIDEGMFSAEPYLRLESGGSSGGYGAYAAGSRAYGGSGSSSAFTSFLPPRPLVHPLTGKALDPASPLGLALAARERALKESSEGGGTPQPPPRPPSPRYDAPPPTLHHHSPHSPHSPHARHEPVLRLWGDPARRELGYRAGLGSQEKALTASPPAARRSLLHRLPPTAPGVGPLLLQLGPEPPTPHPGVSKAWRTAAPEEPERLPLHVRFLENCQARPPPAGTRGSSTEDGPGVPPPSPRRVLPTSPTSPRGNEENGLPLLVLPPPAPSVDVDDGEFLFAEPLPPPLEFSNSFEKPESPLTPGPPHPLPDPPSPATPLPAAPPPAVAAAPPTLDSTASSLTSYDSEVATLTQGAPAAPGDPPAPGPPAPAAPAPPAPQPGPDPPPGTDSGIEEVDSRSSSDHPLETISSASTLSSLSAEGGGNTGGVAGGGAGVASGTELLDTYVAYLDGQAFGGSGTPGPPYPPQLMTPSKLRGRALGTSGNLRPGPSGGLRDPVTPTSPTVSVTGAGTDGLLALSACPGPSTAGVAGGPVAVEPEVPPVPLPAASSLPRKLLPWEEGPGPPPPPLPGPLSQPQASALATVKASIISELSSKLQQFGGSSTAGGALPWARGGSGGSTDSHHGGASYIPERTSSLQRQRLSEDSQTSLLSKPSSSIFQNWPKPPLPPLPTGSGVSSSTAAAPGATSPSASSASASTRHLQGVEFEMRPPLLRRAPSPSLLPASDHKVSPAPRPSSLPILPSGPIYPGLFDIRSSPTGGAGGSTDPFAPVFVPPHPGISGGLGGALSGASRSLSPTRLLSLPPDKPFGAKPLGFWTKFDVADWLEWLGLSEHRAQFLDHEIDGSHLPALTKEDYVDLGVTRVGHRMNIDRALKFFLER
row,effect of a mutation on the interaction,Variant
1,disrupting interaction,T664A
2,decreasing interaction,T664S
3,decreasing interaction,R665D
4,decreasing interaction,L666V
5,disrupting interaction,L666A
